Laboratory results reported in US20140065150A1 (AGGAMIN PHARMACEUTICALS, published 2014).

Molecular target: T1, human sFlt-1 protein (Ig-like domains 1-3), amino acids Ser27 to Ile328, with carboxy-terminal poly-histidine … (human, UniProt P17948 27-328)
T1 construct: range 27-328; also called sFlt-1 (domains 1-3); Recombinant sFlt1 (d1-d3)
Assay: SPR (FIG. 2 legend: ForteBio Octet), antibody immobilized, sFlt-1 (domains 1-3) in the liquid phase; apparent Kd
Method: The apparent Kd of binding between purified monoclonal antibodies and sFlt1 was measured by surface plasmon resonance (SPR). (FIG. 2B). Antibodies were immobilized on the solid phase and sFlt-1 (domains 1-3) was in the liquid phase. There was no direct correlation between antibody affinity (as measured in a kinetic binding experiment) (FIG. 2B) and effectiveness (FIG. 2A) in the device. There was also no direct correlation with on-rates or off-rates and device effectiveness.

T1 sequence (P17948 27-328): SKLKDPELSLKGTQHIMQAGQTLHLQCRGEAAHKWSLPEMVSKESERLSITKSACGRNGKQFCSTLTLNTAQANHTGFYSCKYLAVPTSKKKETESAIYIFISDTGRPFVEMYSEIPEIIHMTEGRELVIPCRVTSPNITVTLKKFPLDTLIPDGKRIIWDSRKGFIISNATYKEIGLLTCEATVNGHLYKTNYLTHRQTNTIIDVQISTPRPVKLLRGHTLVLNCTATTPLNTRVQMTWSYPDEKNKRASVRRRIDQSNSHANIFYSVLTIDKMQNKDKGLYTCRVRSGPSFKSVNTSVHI

Kd: 1.44 nM
B1: antibody 101 (antibody, V domains shown)
VH: QVQLKQSGPGLVQPSQSLSLTCTVSGFSLTNYGVHWIRQSPGKGLEWLGVIWSGGSIDYNAVFTSRLTITKDHSKSQVFFKVNSLESNDTAIYYCARNVGYRYDDGYVMDYWGQGTSVIVSS
VL: SIVMTQTPKFLLVSAGDRVTITCKASQSVSIDVAWYQQKPGQSPKLLIYHASNRYTGVPDRFIGSRYGTDFTFTISTVQAEDLAVYFCQQNYDSPFTFGSGTKLELKR
notes: Mouse monoclonal antibody raised against human sFlt-1 (Ig-like domains 1-3)
